Publication PMC5677581 (2017)
βAla = NCCC(=O)O

Legend:
MLL1 [1] = target: T1, MLL1 (Homo sapiens); test: fluorescence polarization competition
T1 chain: Ac-SDIMDFVLKNTP-NH2

MLL-WT [2] = target: T2, MLL-WT (Homo sapiens); test: fluorescence polarization competition
T2 chain: Ac-DCGNILPSDIMDFVLKNTP-NH2

MLL-WT [3] = target: T3, MLL-WT (Homo sapiens); test: fluorescence polarization
T3 chain: {fluorescein-βAla}-DCGNILPSDIMDFVLKNTP-NH2

MLL1 [4] = target: T4, MLL1 (Homo sapiens); test: fluorescence polarization
T4 chain: {fluorescein-βAla}-SDIMDFVLKNTP-NH2

B1: KIX domain of CBP KIX (protein)
chain: not shown
MLL1 [1]
  Ki: > 1 mM
MLL-WT [2]
  Ki: 3000 nM
MLL-WT [3]
  Kd: 1000 nM
MLL1 [4]
  Kd: > 100 µM
